Laboratory results published in US20230357354A1, “CD38-BINDING CD31 PEPTIDES AND USES THEREOF” (ENCEFA, priority 2020, published 2023).

What was measured:
[1] = target: recombinant His-tagged CD38 (human) (UniProt P28907); assay: Pepscan ELISA, LOOP7 array; His-tagged CD38 in solution, anti-His HRP
[2] = target: CD38 on cells of rat midbrain cultures (rat (cultures from Wistar rat embryos)) (UniProt Q64244); assay: cell-based or functional assay
Chain of CD38 on cells of rat midbrain cultures (rat (cultures from Wistar rat embryos)) (Q64244 whole entry): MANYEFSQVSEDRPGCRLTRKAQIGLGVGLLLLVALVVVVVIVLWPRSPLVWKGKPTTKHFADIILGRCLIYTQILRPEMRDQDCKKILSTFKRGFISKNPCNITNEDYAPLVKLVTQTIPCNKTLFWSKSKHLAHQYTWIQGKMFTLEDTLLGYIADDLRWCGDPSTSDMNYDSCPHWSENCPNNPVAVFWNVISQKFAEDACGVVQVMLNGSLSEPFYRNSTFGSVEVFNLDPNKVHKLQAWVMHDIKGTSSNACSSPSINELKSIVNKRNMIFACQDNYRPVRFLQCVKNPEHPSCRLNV

Value (Pepscan ELISA signal) [1] | EC50, prevention of MPP^+-induced DA cell loss in rat midbrain cultures [2] | Substance
651 mAU |  | CD31 peptide CEYOVLVEC (LOOP7)
 | 0.036 µg/mL | murine sCD31 (SEQ ID NO: 18) (from UniProt Q08481 18-585) (ligand)
